Source: the supplement of paper PMC10567573
± gives the standard deviation.

Assay: protein stability index of a GFP-peptide fusion (GPS, HEK-293T) (PSI 1-6); higher = more stable
[1] = treatment: DMSO, c terminus: a fixed tail appended
[2] = treatment: MLN4924 1 uM, 8 h, c terminus: a fixed tail appended
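Also: 24-mer peptide tiles fused after GFP, lentivirally expressed, FACS-sorted into six equal bins by GFP/DsRed ratio, decoded by Illumina sequencing, PSI is the read-weighted mean bin number.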

Sequence	protein stability index [1]	protein stability index [2]	protein stability index (treatment: DMSO, c terminus: native)	protein stability index (treatment: MLN4924 1 uM, 8 h, c terminus: native)
TLEQILEHLDNLRLNLTNTKQNFF [INTS3]	2.23 ± 0.54	2.31 ± 0.11		
AMPDPTVPDSDIKALTTLCDLADR [ESRRG]	5.11 ± 0.28	5.15 ± 0.16		
NCNWFCEGSFNGSEKETMQFLNDR [KRT33B]	3.54 ± 0.35	3.61 ± 0.19		
HQVTVNESLLAPLNVELDPEIQKV [KRT71]	4.73 ± 0.2	4.45 ± 0.15		
ELKRLVESRRQQILREFEELHRRL [TRIM39]	2.44 ± 0.31	2.72 ± 0.38		
YQLFEELGKGAFSVVRRCVKVLAG [CAMK2A]	2.9 ± 0.64	2.64 ± 0.39		
IGMSAAGMGLTGTMGMGMPNIAMT [CLINT1]	2.62 ± 0.079	2.56 ± 0.13		
KFDHIEVRDGPFGFSPIIGRFCGQ [NETO1]	2.3 ± 0.28	2.44 ± 0.34		
YESGYAFLPDLLIFQMVIICLMCV [SMG5]	3.23 ± 0.32	3.16 ± 0.57		
MNGGMSLVAFVLLNECVGTAYWAL [SLC22A15]	3.91 ± 2	3.13 ± 0.38		
KDLILRFCIDSENRIGNSGVEEIK [STK38L]	2.472 ± 0.02	2.85 ± 0.42		
RTELLKDAIGEGKVTLRIRNVRFS [MOG]	2.68 ± 0.4	2.79 ± 0.42		
LGLSRAQPVQSKPQKASAPAADPP [PDLIM7]	4.71 ± 0.16	4.86 ± 0.37		
LSQPVTYQAFRECTLETTVHASGW [BCL2L13]	2.44 ± 0.46	2.48 ± 0.4		
IGSSSEKEIDDVIDEIISLESSYN [TFE3]	4.37 ± 0.25	4.4 ± 0.22		
LTMAATFDDCLYALCVVDTIKRSS [GFOD1]	2.54 ± 0.72	2.68 ± 0.57		
FKDEYKSENIKLREENEKLRLENS [CCDC89]	5.25 ± 0.15	5.2 ± 0.15		
SSTLNPSTSSSTQGDPAFPEMNGN [NOL4L]	5.44 ± 0.25	5.44 ± 0.2		

Sequence	protein stability index [1]	protein stability index [2]	protein stability index (treatment: DMSO, c terminus: native)	protein stability index (treatment: MLN4924 1 uM, 8 h, c terminus: native)
VNHRIYYKGHIPEKLETFVSLHR [FEM1C]			2.24 ± 0.17	2.305 ± 0.015
LACGSNRFNKLGLDHLSLGEEPVP [NEK8]	3.12 ± 0.14	3.2 ± 0.14		
ASRTSTIFLNGNRERPLNVFCDME [TNXB]	3.09 ± 0.42	3.07 ± 0.34		
HPFFDTAEPDMDDPAYIAVLVLIF [INTS4]	2.61 ± 0.57	2.66 ± 0.62		
QETPYLVKLPLPAERVTLADFKGV [DVL3]	3.25 ± 0.3	3.49 ± 0.18		
VAETECRYALQLQQIQGLISSIEA [KRT13]	2.72 ± 0.15	2.63 ± 0.2		
TFVNVYIASFIRGPNPSKLIQQFL [CDS2]	2.4 ± 0.65	2.73 ± 0.6		
VVKRREGPAGHSKGELAPELGEEP [POLD4]	5.46 ± 0.087	5.14 ± 0.36		
KLMKILQPQDVDLALDSGASLLHL [RIPK4]	2.11 ± 0.12	2.52 ± 0.21		
VYDQAVSIFYDLPQGSGFCLGQLN [SMAD6]	2.03 ± 0.24	2.16 ± 0.32		
EQSSCTMTPDIHELVENIKSVLKS [FAM189A2]	2.19 ± 0.29	2.4 ± 0.37		
CHICHKKLYTGPGLAIHCMQVHKE [ZNF207]	3.07 ± 0.27	3.25 ± 0.39		
GRNHTPFLGHHSFSVRPGTEATIS [SCNN1D]	3.65 ± 0.14	3.78 ± 0.25		
QGEQLEVPERLLVVLDMEEGTLGY [SPSB2]	2.86 ± 0.34	3.06 ± 0.24		
LHKQTASDLLDEKEIAKNLIQPIN [FEM1C]	3.38 ± 0.22	3.89 ± 0.18		
LQDMLDGFIKKFVLCPECENPETD [EIF5]	3.19 ± 0.43	3.34 ± 0.12		
CHPVERGIKSKEAEEYRLKEHYLT [PSD2]	4.21 ± 0.093	4.1 ± 0.2		
VLQMWHIVDKCTELLREGRASATT [ZBTB22]	2.19 ± 0.29	2.25 ± 0.41		
